Test results from paper PMC3326539 (The Journal of biological chemistry, 2005).

Columns and labels:
[1] = biological target: T1, ArnA C-terminal decarboxylase domain (T316M to S660) (E. coli, UniProt P77398 316-660, T316M); assay: SEC
T1 sequence (looked up): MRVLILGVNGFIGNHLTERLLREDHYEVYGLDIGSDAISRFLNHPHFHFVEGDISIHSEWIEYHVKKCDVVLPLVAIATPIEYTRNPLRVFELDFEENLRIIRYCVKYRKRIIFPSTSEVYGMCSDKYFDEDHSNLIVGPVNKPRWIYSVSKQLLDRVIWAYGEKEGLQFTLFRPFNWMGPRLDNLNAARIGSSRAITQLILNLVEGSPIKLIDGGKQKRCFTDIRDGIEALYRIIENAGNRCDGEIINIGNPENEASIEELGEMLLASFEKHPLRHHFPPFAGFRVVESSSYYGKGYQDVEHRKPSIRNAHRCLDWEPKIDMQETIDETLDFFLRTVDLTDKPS

[2] = biological target: the molecule itself; assay: crystal structure

Kd [1]: > 5 mM
B1: ArnA N-terminal formyltransferase domain (residues M1 to N305) (domain or fragment, E. coli, UniProt P77398 1-305, looked up)
chain: MKTVVFAYHDMGCLGIEALLAAGYEISAIFTHTDNPGEKAFYGSVARLAAERGIPVYAPDNVNHPLWVERIAQLSPDVIFSFYYRHLIYDEILQLAPAGAFNLHGSLLPKYRGRAPLNWVLVNGETETGVTLHRMVKRADAGAIVAQLRIAIAPDDIAITLHHKLCHAARQLLEQTLPAIKHGNILEIAQRENEATCFGRRTPDDSFLEWHKPASVLHNMVRAVADPWPGAFSYVGNQKFTVWSSRVHPHASKAQPGSVISVAPLLIACGDGALEIVTGQAGDGITMQGSQLAQTLGLVQGSRLN
binding result [2]: binds
